Experimental data reported in US20220259322A1.

B1: anti-GRP78 scFv-Fc 1183 (Fc fusion, part only; not given: Linker, domain order, Fc, not shown: another chain or arm of the molecule; a dimerising Fc or GST; small tags and cut ends)
VH: QMQLVQSGAEVKKPGSSVKVSCKASGGTFSSYAISWVRQAPGQGLEWMGWISAYNGNTNYAQKLQGRVTMTTDTSTSTAYMELRSLRSDDTAVYYCARDPPLRYFDWFRGSDWFDPWGQGTLVTVS
VL: NFMLTQPHSVSESPGKTVTISCTRSSGSIASNYVQWYQQRPGSSPTTVIYEDNQRPSGVPDRFSGSIDSSSNSASLTISGLKTEDEADYYCQSYDSTNGVFGGGTKLTVL
B2: anti-GRP78 scFv-Fc 1171 (Fc fusion, part only; not given: Linker, domain order, Fc, not shown: another chain or arm of the molecule; a dimerising Fc or GST; small tags and cut ends)
VH: QVQLVQSGAEVKKPGSSVKVSCKSSGGTFSNPVISWVRQAPGQGLEWMGGIITMFGTTYYGNSVRGRFIVSRDNSKNMLFLQMNSLRAEDTAVYYCAKDPPMFDYWGQGTLVTVS
VL: DIQLTQSPSSLSASVGDRVTITCRASQSISSYLNWYQQKPGKAPKLLIYDASNLETGVPSRFSGSGSGTDFTFTISSLQPEDIATYYCQQYDNLLALTFGGGTKVDIK

Assays:
[1] = target: recombinant GRP78 full length protein (UniProt P11021); test: Biacore, recombinant full length GRP78, scFv1183-Fc from 500 nM in two-fold dilutions
[2] = target: 78-kDa glucose-regulated protein (GRP78) (UniProt P11021); test: flow cytometry, irradiated A549 cells, % of positive cells, 4PL fit
[3] = target: 78-kDa glucose-regulated protein (GRP78) (UniProt P11021); test: flow cytometry, irradiated A549 cells, gMFI minus secondary only, one site-specific binding fit
[4] = target: recombinant GRP78 full length protein (UniProt P11021); test: Biacore, recombinant full length GRP78, scFv1171-Fc from 500 nM in two-fold dilutions

Sequence of recombinant GRP78 full length protein (P11021 19-654 limits assumed): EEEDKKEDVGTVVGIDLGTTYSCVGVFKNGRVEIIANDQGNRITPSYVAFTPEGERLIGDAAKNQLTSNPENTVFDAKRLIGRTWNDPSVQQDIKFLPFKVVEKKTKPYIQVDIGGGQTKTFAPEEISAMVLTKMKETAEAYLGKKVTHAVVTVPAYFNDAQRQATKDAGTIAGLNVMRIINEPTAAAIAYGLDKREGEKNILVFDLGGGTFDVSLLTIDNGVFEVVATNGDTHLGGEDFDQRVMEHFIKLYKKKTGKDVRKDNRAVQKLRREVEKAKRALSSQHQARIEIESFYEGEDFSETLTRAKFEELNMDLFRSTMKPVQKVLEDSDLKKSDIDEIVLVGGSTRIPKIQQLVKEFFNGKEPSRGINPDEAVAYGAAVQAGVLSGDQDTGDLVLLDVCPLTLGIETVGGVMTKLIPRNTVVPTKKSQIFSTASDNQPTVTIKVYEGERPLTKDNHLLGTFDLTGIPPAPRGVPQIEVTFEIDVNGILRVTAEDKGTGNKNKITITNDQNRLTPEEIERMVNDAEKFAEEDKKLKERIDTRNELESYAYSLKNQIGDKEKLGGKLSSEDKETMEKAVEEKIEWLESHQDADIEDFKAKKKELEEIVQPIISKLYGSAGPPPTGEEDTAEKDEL
Sequence of 78-kDa glucose-regulated protein (GRP78) (P11021 19-654 limits assumed): as above

| Binder | Kd [1] [nM] | koff [1] [s⁻¹] | kon [1] [M⁻¹ s⁻¹] | EC50 [2] [nM] | Kd [3] [nM] | Kd [4] [nM] | koff [4] [s⁻¹] | kon [4] [M⁻¹ s⁻¹] |
| --- | --- | --- | --- | --- | --- | --- | --- | --- |
| B1 | 8.4 | 0.00793 | 944000 | – | – | – | – | – |
| B2 | – | – | – | 16.8 | 18.7 | 4.77 | 0.00324 | 679000 |
